# In patent publication US20210332152A1:
# How the values were obtained:
# human IgG (human) = assay: SPR (BIAcore T200), peptide immobilised on sensor chip, human IgG injected
# [1] = biological target: human serum-derived γ-globulin (Sigma-Aldrich) (human); assay: column chromatography; 0.5 mg synthetic peptide immobilised on NHS-activated column, 1 mg/mL γ-globulin fed, 10% breakthrough
binder,measurement,setting,value
GPDCAYHRGELVWCTFH [peptide (amino acid sequence: SEQ ID NO: 18) prepared by chemical synthesis],Kd,human IgG (human),14 nM
same,koff,human IgG (human),0.0048 s⁻¹
same,kon,human IgG (human),330000 M⁻¹ s⁻¹
same,dynamic binding capacity (DBC),[1],6.9 mg/mL-column
